The source of these data is patent US11780927B2, “Anti-CD40 antibodies for use in prevention of graft rejection” (NOVARTIS AG, priority 2018, dated 2023).

Values joined by “and” are separate entries in the source; they are usually repeats but may differ in a detail not shown here. Identical values can stand only once.

Test [1] concerns transplanted kidney grafts. As to the kind of experiment: Allograft biopsies scored by Chronic Allograft Damage Index (CADI). In kind it is in vivo, human. As to conditions: final biopsy. The text has this:
The quality of the graft was estimated using the Chronic Allograph Damage Index (CADI) (Isoniemi et al. 1992 and 1994), where scores of ≤1 reflects normal renal histology and higher scores correlate with poor long-term outcome (Hayry et al. 2004, Yilmaz et al. 2007, Yilmaz et al. 2003). Pristine renal histology was found in 3 of 5 patients on iscalimab (60%) and in none of the 7 treated with tacrolimus (0%). The average CADI was 1.60±0.60 for CFZ533 (n=5) vs. 5.14±0.80 for tacrolimus (n=7), (mean±SEM, p<0.01 using Student t)
A PoC Study in de Novo Renal Transplantation (CCFZ533X2101/NCT02217410) using CFZ533 was performed. […] Allograft biopsies were performed on a subset of study patients. A pathologist, blinded to therapy, reviewed and scored all biopsy slides using the established Banff criteria and calculated the chronic allograft damage index (CADI, Nickerson P et al., Legendre C et al., Seron D et al.,). A CADI of 1 or less was considered as ‘normal renal histology’. Two patients were excluded from the analysis, since they switched therapy after only 2 months. […] The average CADI at final biopsy was 1.6±0.6 for CFZ533 and 5.1±0.8 for tacrolimus, p<0.01.

The target in test [2] is recombinant human CD40 (Homo sapiens, UniProt P25942). The test can be described thus: Surface plasmon resonance analysis of affinity for CD40. In kind it is binding. The settings on record: SPR, 25° C. The method, then:
The binding analyses of recombinant CFZ533 were performed at 25° C. with HBS−EP+ as running buffer. A typical binding analysis cycle consisted of three steps: (i) capture of the antibody via ProteinA immobilized on the chip surface, (ii) binding of CD40 antigen to the captured anti-CD40 antibody, and (iii) regeneration of the ProteinA surface. To determine the kinetic rate constants of the antigen-antibody binding interactions, binding data were processed, double referenced with responses from blank injections. The binding curves were fitted locally using the 1:1 interaction model of the Biacore T100 Evaluation software to determine kinetic rate constants. The value for the equilibrium dissociation constant (KD) was calculated as the ratio of the rate constants kd/ka. All binding measurements were performed in two independent experiments.

The test system of test [3] is CD20pos B cells. The test can be described thus: In vitro B cell depletion in human whole blood. Type of test: cell-based. The settings on record: 72 hours; Rituximab 50 μg/ml, CFZ533 dose titration. The method, then:
See supplementary material for detailed methods. Briefly, the ability of CFZ533 to mediated depletion of CD20^pos B cells was monitored in human whole blood over a period of three days in comparison to the B cell depleting antibody Rituximab. For CDC, CFZ533 or Rituximab were incubated with RAJI B cells in the presence or absence of rabbit complement and cell lysis was assessed by luminescence.
B cells numbers were determined based on CD45pos and CD19pos events falling within lymphocyte FSC (forward-scattered light)/SSC (side-scattered light) gate. Results for individual antibody concentrations were calculated as percent remaining B cells with reference to untreated samples and graphed as a function of log-transformed antibody concentration (adjusted to 100% and shown as a dotted line). Data represent the mean and SD of eight independent donors. […] Concentration dependent killing of the Raji cells was analyzed after 2 hours, where the viability of the cells was measured by determination of the ATP concentration in each well using luciferase. Results are presented as isotype-control normalized relative luciferase units (RLU) as a function of log-transformed antibody concentration.

Test [4] concerns human B cell line RI-1. The test can be described thus: Internalization by image flow cytometry. The settings on record: 3 hours at 37° C. Type of test: cell-based. The method, then: Internalization of fluorescently tagged CFZ533 and rCD154 was assessed in vitro using the human B cell line RI-1 (Th'ng et al, 1987). CD40 dependence of CFZ533 internalization was assessed using a CD40 knockout RI-1 cell line. Internalization was assessed using an Amnis® image flow cytometer (Merck KHaA, Darnstadt) according to the manufacturer's instructions and data analyzed using ImageStream®^X software.
FIG. 8B. Relative internalization erode of CFZ533 and rCD154 under permissive conditions (non-permissive erode values subtracted). Each dot represents data from an individual experiment and the population mean is indicated as a horizontal red line. FIG. 8C. Representative images of individual CD40 expressing or CD40 knock-out RI-1 cells cultured with Alexa488 labeled CFZ533 for 3 hours at 37° C. In all experiments, cells were co-stained with AlexaFlour 647 labeled CD45 to demark the cell membrane.
(In general: In flow cytometry, cells or beads pass a laser one at a time.)

recombinant human CD40, sequence (P25942 21-277): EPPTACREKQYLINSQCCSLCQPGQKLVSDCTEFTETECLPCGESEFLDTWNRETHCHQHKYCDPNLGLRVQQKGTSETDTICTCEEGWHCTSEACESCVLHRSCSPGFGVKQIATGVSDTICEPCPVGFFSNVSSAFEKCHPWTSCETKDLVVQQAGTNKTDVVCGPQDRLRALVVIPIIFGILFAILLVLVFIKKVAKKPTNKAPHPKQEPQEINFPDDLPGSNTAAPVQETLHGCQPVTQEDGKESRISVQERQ

In the case of `C=CC[C@@H]1/C=C(\C)C[C@H](C)C[C@H](OC)[C@H]2O[C@@](O)(C(=O)C(=O)N3CCCC[C@H]3C(=O)O[C@H](/C(C)=C/[C@@H]3CC[C@@H](O)[C@H](OC)C3)[C@H](C)[C@@H](O)CC1=O)[C@H](C)C[C@@H]2OC` [tacrolimus, reference compound], in test [1], the “average CADI (mean±SEM)” value was 5.14±0.80 and 5.1±0.8. Consider “HCD122: parental antibody, wild-type IgG1 version of CFZ533 [reference compound]”, for which, in test [2], the “ka [1/Ms]” value was 2.84 ± 0.67 × 10^5 1/Ms and the “kd [1/s]” value is 1.26 ± 0.03 × 10^−4 1/s.

For the molecule “Rituximab: depleting anti-CD20 antibody [reference compound]”, the “B cells eliminated in human whole blood” value in test [3] is given as “approximately 80%”.

B1: rCD154: recombinant human CD154, the CD40 ligand (protein)
chain: MQKGDQNPQIAAHVISEASSKTTSVLQWAEKGYYTMSNNLVTLENGKQLTVKRQGLYYIYAQVTFCSNREASSQAPFIASLCLKSPGRFERILLRAANTHSSAKPCGQQSIHLGGVFELQPGASVFVNVTDPSQVSHGTGFTSFGLLKL
In the case of B1, in test [4], the “Internalization by RI-1 B cells” value is on record as “internalized”.
